Usually Kd stands for the equilibrium constant for the complex coming apart.

Kd data for one molecule are collected here from patent US20220089702A1 (published 2022).

This assay has as its target recombinant human tau. In words: SPR. A general note: In SPR one partner is held on a chip, and binding of the other changes the refractive index at the surface.

B1: 7G6 (antibody, V domains shown)
VH: EVQLQQSGAELVRPGALVKLSCKASGFNIKDYYIHWVKQRPEQGLEWIGWIDPENGETVYDPKFQGKASITSDTSSNTAYLQLRSLTSEDTAVYYSTSLDFWGQGTSVTVSS
VL: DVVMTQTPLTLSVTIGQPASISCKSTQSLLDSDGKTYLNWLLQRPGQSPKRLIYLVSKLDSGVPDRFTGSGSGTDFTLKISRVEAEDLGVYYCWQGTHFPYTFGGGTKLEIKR
With B1, the Kd is 5.77 nM.
